Measurements from a protein production outcome set (Wang et al. 2014).

experiment: label from the status in PepcDB records

Sequence | protein production
MTELMGQILGDRYELLRELGSHPGRRTYLALDRWHYEQVVLKLLLFGGGITWDDFKLFEREVAVLQTLDHPAIPRYLDYFEINTPDLKGFALVQTYIEAKSLALWQAEGRVFSEGDLRLLADRLLDILIYLHSRQPPVIHRDIKPTNILLGDRSGHDLGKVYLVDFGAVQTAIAGSTRTVVGTYGYMPPEQFGGKTLPASDLYALGMTLIYLATATPPDELPQKELRVQFQPLVSLSPPFIRWLEKMVAPALEERFDSATAARHALKQLDRSAEDASLITKTPPYGSRLQVRESPQGLLVHIPPVGLNASLFFLIPFAVAWNGFLVVWYSLAIASGFWLMAVFATGHLAVGLGLIGGILYRLLGWQVLMVSPKDLRFYEHILGFRWRHAKVLPLEVIEEIELQPRGTCRHQEDDRQQLWSKLVIRAGSQEIELTENAPRVTSRDLEWLAYTLGRYLGRRVTQARQDCRST | failed
MTEMELKLIKIDTSHYFEKKPGLGERVDYAGRCFYNKFQRVNAMLTSSLIQKHLKREIEIAHNLILRNDKVENIVFDYNGRNPERFYHKAQLLLREEGFMNFTAYNTKTPGHLHLYVHKGHTELGEGERLVKTLSMKLAQGLPKEWKVFPSNEWPKEFNILALPYEVFAKERGSSWAKHL | not failed
MTENAEKFLWGVATSAYQIEGATQEDGRGPSIWDAFAQRPGAIRDGSTGEPACDHYRRYEEDIALMQSLGVRAYRFSVAWPRILPEGRGRINPKGLAFYDRLVDRLLASGITPFLTLYHWDLPLALEERGGWRSRETAFAFAEYAEAVARALADRVPFFATLNEPWCSAFLGHWTGEHAPGLRNLEAALRAAHHLLLGHGLAVEALRAAGARRVGIVLNFAPAYGEDPEAVDVADRYHNRFFLDPILGKGYPESPFRDPPPVPILSRDLELVARPLDFLGVNYYAPVRVAPGTGTLPVRYLPPEGPATAMGWEVYPEGLYHLLKRLGREVPWPLYVTENGAAYPDLWTGEAVVEDPERVAYLEAHVEAALRAREEGVDLRGYFVWSLMDNFEWAFGYTRRFGLYYVDFPSQRRIPKRSALWYRERIARAQT | not failed
MTENGRYEYIVIGSEAAGVGLVRELTAAGKKVLAVDKSKEKIELLEDEGFDAVIADPTDESFYRSLDLEGVSAVLITGSDDEFNLKILKALRSVSDVYAIVRVSSPKKKEEFEEAGANLVVLVADAVKQAFMDKIKKMETL | not failed
MTENGRYEYIVIGSEAAGVGLVRELTAAGKKVLAVDKSKEKIELLEDEGFDAVIADPTDESFYRSLDLEGVSAVLITGSDDEFNLKILKALRSVSDVYAIVRVSSPKKKEEFEEAGANLVVLVADAVKQAFMDKIKKMETLKKIEKLKRIMESLRGKRLGIFTHDNPDPDSMSSAYALREIAKQFDVIADILYYGEILHQKNRAMVNLLEIPMIRAPEVDLSHYDAFAIVDSSGPGVNNSIPPDIDISIVIDHHPAEKVVAEFVDLREDVGATATILTEYIKELKITPSKILATALFFGIKSETDEFKRNTRTADFLACAFLYPFVDQDLIEKIESPSISTETLDILGTAIKNRQVYSSFLISFAGFINDRDALPQAADFLLKLEGISTVVVFGVIKDTVYVSARNKDVRIHMGEVLRRAFGDVGSAGGHAHAAGAQIPLGIFGETNEKDLLAKLITEAITKRLLSAVGMEQS | failed
MTENTFTDPSWLRLSCFIGVLLLCNLWENKLPRKTLTVKRSFRWLNNLSLVALNSAIIALVMPIAAFQAAAIAHDQQWGLFNLLSLPGWLNVLLAVIVLDLIIYVQHLVFHRVKPLWKIHRMHHADLDIDVTTGARFHPIEIIISMVVKITSVFILGVSPLAIVVFEIILNASAMFNHSNAKLALSIDKKLRKVIVTPDMHRVHHSVMVKETHSNFGFFLSVWDRWFGTYRAQPALGHNDVVIGVPEIREASEQRLDKLLTQPFRYREGKGKNVD | not failed
MTEPEGYRRFLQLVAHEFFHLWNVKRIRPKALEQFDYEAENYTPSLWFSEGATSYYDLLLPLRAGLYGVDSFLEALGKDLSRYLTTPGRKVQPLAESSFDAWVKLYRRDAYSDNQQMSYYLKGQLVCWLLDLEIRNHQPDLEHHHHHH | failed
MTEPYAVPVPRGYRVGVWEVHAPIATGAFGSVYAARRTGGDDTKASPTRPGGDDNTKAPPTRPGGDGTGHRPSRPGTTDTAGTDDSHGTGTGTGTGTPSRAQTDTAHPAEGDTDDPGHTSGNGTTGTDGTRRSHGTGTGTPSRAHTDTAHPAEGDTDNPGHTSGNGTTGTDGTGRSHGTGTGTGTHNPSRVQTGAAHPAKGDTDNPGRTGGDGTARRPGRAGVVGAGRGGDAGGEVPDTVALKFLPTGTGTPRQLAHLRDLVEREVELLRRLRRPRLIRMYETLTVDDPAHPRLDGATVLVLERAEGSLSALLAATPRPPAGPALLAQVCEGLQQLHRAGWVHGDLKPANVLLMADGSARLADFNMAAELEGTHAYTPAFATPDYTPPELLWSEIGERGRRIRPSADVWAFGVLAHLVLTGSFPLPGGTPTARRDAAVAYARGGHELRLSPEPPPGWREIVRACLTRTHADRIGTDALLRRVTGTTEGASGGAGFSPRTRARPRRRVLAALAAGLLALAALGYGVARWAGDGREPAAGPRPGGTGSVAAASYGAAELRTDRDVPPAYRLLIVETAHDCDREEVSPALIAAMLKVESDFDPDLADPAKDEYGIARWTPSVLRWWMNEDGTPGETVPQPPFPPAESVPAMGRYLCWIAPRLDAGLPGDRSVLVAVAYRTSYRKVNDAGGVPPKYRDYADRVAHHLKEYTPRRGK | failed
MTEQERLELEAAAFRRLVAHLDSRKDVQNIDLMNLSGFCRNCLSKWYKAAADEKHIDITLDDAREVVYGMPYSEWKANYQKEASAEQQAAFVKESKHD | not failed
MTERKLVAERNFEVNGYDIDAMGIVSNIVYIRWFEDLRTDFINQYMPYSDMMNQQISPILMNTEAEYKTPITIHDKPVGRCYLVKASKLRWEFEFEIESEDAVHCIGKQSGTFFDLQKKKVTRLPEVFQTILSLEHHHHHH | failed
MTERSDYSIRIMSRQEIGMAVDWAAEEGWNPGLHDADCFHAADPEGFLTGLLGNEPVATISVVRYGTAFGFLGFYIVRPKYRGMGFGLKIWNAGLEQLKGRTIGLDGVVAQQENYAKSGFILAYRNIRVKGSGGGKIPAHEGIKPLVELPFETLLTYDSLFFPEERRTFLECWINQRESSSLGIIENNRLSGYGVIRTCRSGSKIGPLFADRADLAEELFCALKASAPEGSPLFLDIPEVNPEAVKLAQRHNMTVVFETSRMYQGNIPELPLGNIYGVTTFELG | failed
MTERSFEGSAYSDYRSSHQKPGYGTDYAETFRSGYYAALWSRIERPLVEGILSPLGGPGRSCLDFACGTGRVAAVAGPLFGEVVGVDVSRSMLACARVPGNVKLVEADLTVAPLSRRFDVVTAFRFFLNAEDTLKRDALSAIHEHLNDGGLLVSNVHMNATSPMGLACRFLNRFQGRVVRSTLSIHAYRQMLVSNGFVVESVIGYGFLPRPGWLLPRLCETLVGPVETICRRAGVPGRFAQNFLVVARKQ | failed
MTESDRDQEASMREVVIVKSTPQRGKFNAFAELVGKLVSETRDFPGCLGAYLMLAPERNEQVVMHIWETPDALEAYLTWRADRGDFLEINEYLEVEQDFKTYQLA | not failed
MTETGDDLATVKKPIPFLVIFKDLRHVFSRDTTGREILGIAFPAALALAADPIASLIDTAFVGRLGAVQLAAVGVSIAIFNQASRITIFPLVSLTTSFVAEEDTMEKMKEEANKANLVHAETILVQDSLEKGISSPTSNDTNQPQQPPAPDTKSNSGNKSNKKEKRTIRTASTAMILGLILGLVQAIFLIFSSKLLLGVMGVKPNSPMLSPAHKYLSIRALGAPALLLSLAMQGIFRGFKDTKTPLFATVVADVINIVLDPIFIFVLRLGIIGAAIAHVISQYFMTLILFVFLAKKVNLIPPNFGDLQFGRFLKNGLLLLARTIAVTFCQTLAAAMAARLGTTPMAAFQICLQVWLTSSLLNDGLAVAGQAILACSFAEKDYNKVTAVASRVLQMGFVLGLGLSVFVGLGLYFGAGVFSKDPAVIHLMAIGIPFIAATQPINSLAFVLDGVNFGASDFAYTAYSMVGVAAISIAAVIYMAKTNGFIGIWIALTIYMALRAITGIARMATGTGPWRFLRGRSSSSSS | failed
MTETHQQLMKLPVNQVFFKYFVPATLGLILMSANILIDGLFVGNGIGTAALAGVNLSYPVISLIMAIALWIGIGGATKYSISIGENRPKKASSIFSLALFLALIISVLLGVFGILNIQTISIWLGANSDTSSFVIEYLSVMFLFGWVITLEQVLSIFVRNDGSPKLSMMALATTSIVNIILNFYTIMILDMGVTGAAISTVLGGFAGLLVLSLHFFNRQAQLRRPAFQWSWKSLMHIFAIGFPSFLAEAGLLVFVTGYNLAMASLAGTEGVAAFSVINYLHGFMFLSFFGIEMALQPMISYYHGAEETEQIKSSMKIGEKTAVILGILLLVIGWGAAPFLVGLFGIESTEIQQLAIDGIRLFFIGYTFLGYNFVYMSYFQSIGRAGSSVVIIILRSFVSLFILLWILPKFIGVTGVWLSLPLSEFFVAVLLFFIARKHVMGKGNPAIGKG | failed
MTETKPRIAIRYCTQCNWLLRAGWMAQEILQTFASDIGEVSLIPSTGGLFEITVDGTIIWERKRDGGFPGPKELKQRIRDLIDPERDLGHVDRTKHEGLDTLEHHHHHH | not failed
MTEVAHTASGSTNTMDREGLPVAETTCAPGLPLWARPEARTALGDTLRPGGFSLTDRLATLAGVHPGWRVLDVGCGTGATVLHLRQRYGASAFGCDRSTSLTPGSNNHKGLPVIAADAANLPFADGSMKMVFCECVLSLLVKPLEVLRGLRRLLVPGGLLGVSDLYLRGEGHARVTEGSCLAWQATRMRIESLLHEAGFALHTFEDHSPLLRETAARLALSGALHGGAMNCGERAFPSRDACRRCSPEGIAAPPQATPCSMTECSFSPPATRAVTEQVARPGYFLLLAQSLKGTRED | failed
MTFCFWMRDTCHQRRRADIGSANADRYWEEDMTGTPRLLESRWDDAYAQTLDEPGKLLYRSNLLGADKRITNYGGGNTSAKVLEIDPLTGEKVRVMWVKGSGGDVGTIKLDGFATLYLEKLEALKGIYKGVEDEDRMVGFLPHCTFNLNPRAASIDTPLHGFVPFDHVDHMHPDAIIAIAASKNSKELTQQIFGDDIGWLPWRRPGFQLGLDLEAFVKANPTAKGVVLESHGLFTWDDDAKACYELTLAIINKAIEWFAAETEGKTIFGGALAKSLPVAERRAIAARLMPEIRGRIGREERKLGHFDDQDAVLEFVNSKDLKPLGNLGTSCPDHFLRTKIRPLILDLDTAKPDVDALTAGLDKALEAYRADYSRYYEACRHDNSPKMRDPNPVIFLIPGVGMLSFAKDKATARIAGEFYVNAINVMRGASTVSEYQGLPEQEAFDIEYWLLEEAKLQRMPKPKSLAGRVAFVTGGAGGIGRATAERLADEGACVVLADIDEAALEAAKGDFVKRYSGDAVRTVKLDVTQEDDVISAFAEASVEFGGVDILVSNAGIASSAPVEDTTLAMWNKNIDILATGYFLVSREAFRLLRRQNLGGNIVFVASKNGLASSPNASAYCTAKAAEIHLARCLALEGAEAGIRVNTVNPDAVLRGSKIWNGEWREQRAASSKIEVTDLEEHYRKRSMLKLNVFPEDIAEAIYFLASDASAKSTGNIINVDAGNAQSFTR | failed
MTFLIPAYNEEKSIGPLIDRIKMLCPDSEIIVVDNNSSDRTSEIATSRGVRVIFEGKQGKANAMVAAFRNTRTEYAVMMDADLTYLPDDSRVLVEVLKAEGADVVLGSRLNGEKEDGAISRINTVGNHILSFTASILYSPVSDVCTGHWAFNRRAIRHILEEGLNYSGFELEAEMFSKLARAGLKIVEVPITYRKRSDEPKLSSFTDGFKIFRTLVLERLRLEHHHHHH | failed
MTFNKKEKLSITALLIILYLIPAGLEWLEFDSENLHVIAISLPIWLAFFYLGPFWLFYWTQQNKHVARLHVVAQGVLYVLMMFAGANIVSRLHSMAFPQYQFPIKEQGLSAFLWGVFIFSMTHMYLLYQRFVQEQRLRKEAQLADLTSRLNPHFLFNSLNTISALIHSSPDKADDVLHKLSDILRYSVDQQNKWVPLEHELAVCETYLTVEKARFTDNLNISWQIASSVDMRQLKVPPLLLQPLIENVMKHVKRRPIELLISVQAEQGKLIFKVKDNGKGFSEPSLNEQSKAGQGLNIVKQRVDIAGGELSLFNDTSEQGGAVCEITLPIHACV | failed
